Experimental data published in patent US20240002497A1 (Merck Sharp & Dohme, published 2024).
Numbering of substitutions follows the chain as printed. Numbers in names are those of the source. Read-outs that look alike come from different tables or passages of the source. Values belong to the binder of their own block, whether it stands above or below them.

Key:
[1] = molecular target: T1, huNav157 chimera 14 + β1-β2-β3 on cells (human (huNav1.7α/huNav1.5α chimera)); assay: binding FACS, HEK FlpIn cells
T1 construct: Extracellular loops and transmembrane helices of Nav1.7α, intracellular loops of Nav1.5α; P2A linkers are cleaved co-translationally; also called HEK FlpIn Nav157ch14-β1-β2-β3; huNav157 chimera 14-beta1-beta2-beta3

[2] = molecular target: T2, huNav157 chimera 14 on cells (without β subunits) (human (huNav1.7α/huNav1.5α chimera)); assay: binding FACS, HEK FlpIn cells
T2 construct: also called HEK FlpIn Nav157ch14

[3] = molecular target: T3, huNav1.7α on HEK cells (without β subunits) (human, UniProt Q15858 1-1988); assay: binding FACS, HEK cells (HEKa)
T3 construct: also called HEKa huNav1.7α

[4] = molecular target: huNav1.7α + β1 on HEK cells (human, UniProt Q15858 1-1988; Q07699 19-218); assay: binding FACS, HEK cells (HEKa/b1)
huNav1.7α (HEKa) = molecular target: T4, huNav1.7α (HEKa) (human, UniProt Q15858 1-1988); assay: binding FACS, HEKa cells
T4 construct: also called HEKa huNav1.7α
In short: (§1)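 FLAG3-tagged ISVD, 30 min, 4° C, FACS buffer (PBS/10% FBS/NaN₃); 1×10^5 cells/well; detection murine anti-Flag; PI 1 μg/mL live gate; washes between steps.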

huNav1.7α + β1 (HEKa/β1) = molecular target: T5, huNav1.7α + β1 (HEKa/β1) (human, UniProt Q15858 1-1988; Q07699 19-218); assay: binding FACS, HEKa/β1 cells
T5 construct: also called HEKa/β1 huNav1.7α
In short: as §1

huNav1.7α + β1-β2-β3 [5] = molecular target: T6, huNav1.7α + β1-β2-β3 (human, UniProt Q15858 1-1988; A5A6L6 19-218; O60939 30-215; Q2KI11 23-215); assay: binding FACS, CHO FlpIn cells
T6 construct: Cell line (CHO FlpIn, HEK FlpIn, transient HEK293T) is named under assay; also called huNav1.7-beta1-beta2-beta3; human Nav1.7α with Navβ1, Navβ2 and Navβ3
Protocol: (§2) Binding of the ISVDs to cell-expressed Nav1.7α was detected via murine anti-Flag (Sigma, catalog #F1804). Briefly, cells were resuspended in FACS buffer (PBS, 10% FBS, NaN₃) and transferred to a 96-well V-bottom plate at 1×10^5 cells/well. Purified FLAG3-tagged ISVD was diluted in FACS buffer and added to the cells for 30 minutes at 4° C. […] Prior to the read-out, the samples were resuspended in 1 μg/mL propidium iodide (Sigma, catalog #P4170) to exclude dead cells. Between each step, the cells were centrifuged for 5 minutes at 200 grams and washed with 100 μL/well FACS buffer.
(§3) Based on the huNav1.7α model (as described above) the following huNav1.7α-rhNav1.7α polymorphisms can be allocated to the extracellular part of DI: N146S, F276V, R277Q, E281V and V331M. The first of the residues is in DI S1-S2 whereas the latter four residues belong to DI S5-S6. FACS binding studies (as described above) were performed to stable CHO FlpIn cell lines expressing different variants of huNav1.7+β1−β2−β3 each including one of the four possible extracellular huNav1.7α-rhNav1.7α polymorphisms in the DI S5-S6 region: F276V, R277Q, E281V and V331M (Table 23 and FIGS. 22A-22F). Individual polymorphisms were each sufficient to abolish the binding of F0103265B04, F0103362B08, F010301080, and F0103262B06 to huNav1.7α, recapitulating the absence of binding on rhNav1.7α. F0103262CO2, F0103275B05 and F0103387G05 are more subtly affected in terms of EC50 or Bmax by some of the polymorphisms. None of the individual DI S5-S6 polymorphisms by themselves appear to have an impact on the binding of the two rhNav1.7α cross-reactive ISVDs F0103387G04 and F0103464B09. In addition, no effect on binding of the two ISVDs was observed (data not shown) for the three extracellular DIV VSD huNav1.7α-rhNav1.7α polymorphisms Q1530P, H1531Y and E1534D (FIG. 22G).

rhNav1.7α + β1-β2-β3 = molecular target: T7, rhNav1.7α + β1-β2-β3 (rhesus monkey); assay: binding FACS, CHO FlpIn cells
T7 construct: also called rhNav1.7-beta1-beta2-beta3; rhesus Nav1.7α
Protocol: as §2, §3

[6] = molecular target: T8, huNav1.7α(F276V) + β1-β2-β3 (human, UniProt Q15858 1-1988; A5A6L6 19-218; O60939 30-215; Q2KI11 23-215); assay: binding FACS, CHO FlpIn cells
T8 construct: polyprotein as encoded, P2A sites liberate the subunits; the entry already carries F276V; also called huNav1.7(F276V)-beta1-beta2-beta3
Protocol: as §2, §3

[7] = molecular target: T9, huNav1.7α(R277Q) + β1-β2-β3 (human); assay: binding FACS, CHO FlpIn cells
T9 construct: polyprotein as encoded; the entry already carries R277Q; also called huNav1.7(R277Q)-beta1-beta2-beta3
Protocol: as §2, §3

[8] = molecular target: T10, huNav1.7α(E281V) + β1-β2-β3 (human); assay: binding FACS, CHO FlpIn cells
T10 construct: polyprotein as encoded; the entry already carries E281V; also called huNav1.7(E281V)-beta1-beta2-beta3
Protocol: as §2, §3

[9] = molecular target: T11, huNav1.7α(V331M) + β1-β2-β3 (human); assay: binding FACS, CHO FlpIn cells
T11 construct: polyprotein as encoded; the entry already carries V331M; also called huNav1.7(V331M)-beta1-beta2-beta3
Protocol: as §2, §3

huNav1.7α + β1-β2-β3 [10] = molecular target: T6, huNav1.7α + β1-β2-β3; assay: binding FACS, CHO FlpIn cells; remark: listed apart in the source
In short: as §1

huNav1.7α + β1-β2-β3 [11] = molecular target: T6, huNav1.7α + β1-β2-β3; assay: competition FACS, HEK FlpIn cells, vs EC30 of CMYC3-F0103265B04
Protocol: Competition FACS assays were performed with CMYC3-tagged ISVD F0103265B04 or F0103275B05(N93R) affinity maturation variant on a HEK FlpIn huNav1.7α+β1−β2−β3 transgenic cell line. Briefly, cells were resuspended in FACS buffer (PBS, 2% FBS, 0.05% NaN₃) and 1×10⁵ cells/well were transferred to 96-well V-bottom plates. Cells were subsequently resuspended in a 100 μL mixture of purified ISVD (dilution series) and CMYC3-tagged ISVD F0103265B04 (at a concentration equivalent to EC30) followed by incubation for 1.5 hours at 4° C. […] Between each step, the cells were centrifuged for 5 minutes at 200 g and washed with 100 μL/well FACS buffer. Prior to the read-out, the samples were resuspended in 5 nM TOPRO3 (Molecular probes, catalog #T3605) to exclude dead cells. F0103262CO2, F0103262B06, F0103265A11, F0103265B04, F0103275B05, F0103362B08, and F0103387G04 all compete with F0103265B04 for binding to huNav1.7α, in contrast to an irrelevant control ISVD (IRR) (see Table 21 and FIG. 15A, FIG. 15B, FIG. 15C, and FIG. 15D).

rhNav1.7α+β1-β2-β3 = molecular target: T12, rhNav1.7α+β1-β2-β3 (rhesus monkey α subunit with human β …); assay: binding FACS, CHO FlpIn cells
T12 construct: P2A cleaves it into α, β1, β2, β3; also called rhNav1.7-beta1-beta2-beta3

[12] = molecular target: T13, huNav1.7α + β1-β2-β3 (human Nav1.7α co-expressed with human Navβ1, Navβ2 and Navβ3 on cells) (human); assay: binding FACS, CHO FlpIn cells
T13 construct: also called huNav1.7-beta1-beta2-beta3; CHO FlpIn huNav1.7α + β1-β2-β3
In short: as §1

EC50 [3]: 380 nM
EC50 [4]: 230 nM
B1: F010301641 (VHH)
VHH: EVQLVESGGGVVQPGGSLRLSCAASGSIFNINSMAWYRRAPGKQRELVASSTNGGSTNYADSVKGRFTISRDNAKNTVYLQMNSLRPEDTALYYCNALLQPSIYDISRTYWGQGTLVTVSS
notes: also called F0103275B05(R76_V78insT)(L11V, R76N, T83R, V89L)
EC50 [1]: 350 nM
EC50 [2]: 310 nM

EC50 (huNav1.7α (HEKa)): 19 nM
EC50 (huNav1.7α + β1 (HEKa/β1)): 34 nM
EC50 (huNav1.7α + β1-β2-β3 [5]): 43 nM
binding result (rhNav1.7α + β1-β2-β3): no binding
EC50 [6]: 42 nM
EC50 [7]: 34 nM
EC50 [8]: 34 nM
binding result [9]: no binding
EC50 (huNav1.7α + β1-β2-β3 [10]): 110 nM
IC50 (huNav1.7α + β1-β2-β3 [11]): 150 nM
B2: F0103362B08 (VHH)
VHH: EVQLVESGGGLVQAGGSLRLSCAASVRPFSTSAMGWFRQAPEKEREAVAGILWNGIVTYYADSVKGRFTISRDNAKNEVYLQMNKLKPEDTAVYYCALDRDYGGRSFSAYEYEYWGQGTLVTVSS
notes: entry includes the FLAG-HIS6 tag; also called F0103362B08 (parental)-FLAG-HIS6

binding result (rhNav1.7α+β1-β2-β3): no binding
B3: F010302368 (VHH)
VHH: EVQLVESGGGVVQPGGSLRLSCAASSRAFIRDVFTGWYRQAPGKQRELVARIYNGGNTNYADSVKGRFTISRDNAKKTVYLQMNSLRPEDTALYYCLFSGTISTGREYRSGDYWGQGTLVTVSS
notes: F010302365 background plus R39Q, A63V

binding result (rhNav1.7α+β1-β2-β3): no binding
B4: F010302333 (VHH)
VHH: B3 VHH with A28Q, Q40R, G55E, V64A
notes: F010302365 background plus A28Q, G54E

binding result (rhNav1.7α+β1-β2-β3): no binding
B5: F010302341 (VHH)
VHH: B3 VHH with A28Q, G55E, V64A
notes: F010302365 background plus A28Q, R39Q, G54E

binding result (rhNav1.7α+β1-β2-β3): no binding
B6: F010302366 (VHH)
VHH: B3 VHH with V64A
notes: F010302365 background plus R39Q

binding result (rhNav1.7α+β1-β2-β3): no binding
B7: F010302365 (VHH)
VHH: B3 VHH with Q40R, V64A
notes: also called F0103464B09(L11V, T24A, T25S, V40A, E44Q, F62S, S68T, M77T, T79Y, R81Q, S82aN, N82bS, K83R, G88A, V89L, N99S)

binding result (rhNav1.7α+β1-β2-β3): no binding
B8: F010302357 (VHH)
VHH: B3 VHH with A28Q, G55E
notes: F010302365 background plus A28Q, R39Q, G54E, A63V

EC50 [12]: 66 nM
EC50 [3]: 14 nM
EC50 [4]: 39 nM
B9: F0103275B05 (VHH)
VHH: EVQLVESGGGLVQPGGSLRLSCAASGSIFNINSMAWYRRAPGKQRELVASSTNGGSTNYADSVKGRFTISRDNAKRVYLQMNSLTPEDTAVYYCNALLQPSIYDISRTYWGQGTLVTVSS
notes: also called F0103275B05 (parental)-FLAG-HIS6
EC50 [1]: 33 nM
EC50 [2]: 12 nM

EC50 [3]: 23 nM
EC50 [4]: 32 nM
B10: F010301638 (VHH)
VHH: B9 VHH with L11V, R39Q, R76N, T85R, V91L
notes: also called F0103275B05(L11V, R39Q, R76N, T83R, V89L)
EC50 [1]: 50 nM
EC50 [2]: 18 nM

EC50 [3]: 17 nM
EC50 [4]: 30 nM
B11: F010301636 (VHH)
VHH: B9 VHH with L11V, R76N, T85R, V91L
notes: also called F0103275B05(L11V, R76N, T83R, V89L)
EC50 [1]: 45 nM
EC50 [2]: 14 nM

EC50 [12]: 56 nM
EC50 [3]: 13 nM
EC50 [4]: 30 nM
B12: F010301637 (VHH)
VHH: B9 VHH with L11V, T85R, V91L
notes: also called F0103275B05(L11V, T83R, V89L)
EC50 [1]: 29 nM
EC50 [2]: 11 nM

EC50 [3]: 19 nM
EC50 [4]: 31 nM
B13: F010301635 (VHH)
VHH: B9 VHH with L11V, R39Q, T85R, V91L
notes: also called F0103275B05(L11V, R39Q, T83R, V89L)
EC50 [1]: 35 nM
EC50 [2]: 16 nM
